This passage reports Tm results from FireProtDB (doi:10.1021/bi201253b).

The conditions of the data set: Moniliophthora perniciosa, pH 7.2, Thermal, CD, sodium phosphate buffer 4mM, whole UniProt chain shown.

B1: wild type, A5H7H0 (protein)
chain: MQLQNFLSIVLLVVSGAIAGTVMDHDKIAKLPASGSPLETKFQPQLHIGNGCHSYPAVDAQGNWSGGLKPTGAPSAACKDTSKAQTYVRSATFQGKTALVYAWYMPKDEISTGIGHRHDWEGAVVFLNSDTQQIDGVAASAHGKWRKYPNPGGANIDDTHVKLQYSAEPVINSHALDLTDKGGDLPTLASWEGMGADARAAINERSHWGDANPPIADSLIGSSLSGAWMW
As to B1, the melting temperature (Tm) is, setting by setting: (EDTA CaCl2 62.5 micro M 120 micro M) 41.6 °C; (EDTA CaCl2 with ZnCl2 62.5 micro M 120 micro M 120 micro M) 40 °C; (EDTA ZnCl2 62.5 micro M 120 micro M) 41.2 °C.
